From patent US20230365705A1 (DYNAMICURE BIOTECHNOLOGY, published 2023)

T1: Human CD93 on cells (human CD93 expressing CHO cells; HUVEC, U937 and KG1a cells) (human, UniProt Q9NPY3 22-652)
T1 construct: whole, on cells; also called hCD93 expressing CHO cells; hCD93 CHO cells
T1 sequence (looked up): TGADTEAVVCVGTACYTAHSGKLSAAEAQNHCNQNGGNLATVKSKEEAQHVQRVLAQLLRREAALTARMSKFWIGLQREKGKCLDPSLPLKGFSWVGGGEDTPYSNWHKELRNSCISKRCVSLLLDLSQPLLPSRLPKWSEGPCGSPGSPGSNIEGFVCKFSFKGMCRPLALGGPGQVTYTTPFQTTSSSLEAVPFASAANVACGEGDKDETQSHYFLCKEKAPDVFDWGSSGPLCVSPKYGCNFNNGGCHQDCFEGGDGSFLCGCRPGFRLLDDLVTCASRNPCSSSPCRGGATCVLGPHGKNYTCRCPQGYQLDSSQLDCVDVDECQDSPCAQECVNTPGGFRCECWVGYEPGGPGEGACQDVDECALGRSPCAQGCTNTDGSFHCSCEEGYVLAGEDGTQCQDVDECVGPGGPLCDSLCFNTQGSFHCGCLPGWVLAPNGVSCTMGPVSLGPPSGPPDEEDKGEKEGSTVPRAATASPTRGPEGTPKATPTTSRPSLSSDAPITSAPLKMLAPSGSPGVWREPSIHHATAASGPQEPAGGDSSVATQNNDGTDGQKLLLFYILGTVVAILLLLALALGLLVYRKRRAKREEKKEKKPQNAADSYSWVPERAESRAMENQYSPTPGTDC

T2: Human CD93 recombinant protein (Sino Biological Inc, Catalog #12589-H08H) (human, UniProt Q9NPY3 22-580)
T2 construct: Biotinylated (EZ-LINK NHS-PEG4 biotin) in the BLI assays; also called hCD93; His-tagged human CD93
T2 sequence (looked up): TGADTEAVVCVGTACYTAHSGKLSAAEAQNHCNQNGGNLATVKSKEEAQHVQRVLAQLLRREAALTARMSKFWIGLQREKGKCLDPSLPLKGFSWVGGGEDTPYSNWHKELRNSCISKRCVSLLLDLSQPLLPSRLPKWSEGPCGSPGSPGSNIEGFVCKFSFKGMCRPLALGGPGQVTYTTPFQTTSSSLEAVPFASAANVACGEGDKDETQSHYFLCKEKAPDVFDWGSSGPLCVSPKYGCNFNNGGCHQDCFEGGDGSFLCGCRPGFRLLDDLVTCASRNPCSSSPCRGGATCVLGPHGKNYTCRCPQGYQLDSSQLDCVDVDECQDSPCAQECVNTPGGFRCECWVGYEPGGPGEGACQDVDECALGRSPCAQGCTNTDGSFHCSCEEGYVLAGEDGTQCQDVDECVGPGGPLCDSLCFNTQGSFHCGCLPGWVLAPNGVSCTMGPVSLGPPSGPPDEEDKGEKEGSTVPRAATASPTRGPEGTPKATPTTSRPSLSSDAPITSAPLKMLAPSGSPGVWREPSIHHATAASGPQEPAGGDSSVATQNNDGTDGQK


Assays:
[1] = biological target: T1, Human CD93 on cells (human CD93 …); test: flow cytometry blocking assay, CHO-hCD93 cells, antibody 50 ug/ml then MMRN2 0.5 ug/ml, APC-A
Protocol: After incubation, the cells were washed with FACS buffer and incubated with anti-His conjugated APC or streptavidin conjugated APC at a ratio of 1:500 for 30 minutes at 4° C. After washing with FACS buffer twice, the samples were analyzed and data acquired in NovoCyte Flow.

[2] = biological target: T2, Human CD93 recombinant protein (Sino …); test: BLI (Octet QKe), biotinylated CD93 on streptavidin biosensors; table under the hCD93 panels
Protocol: The binding affinity of anti-CD93 antibodies were determined with bio-layer interferometry using Octet QKe (Fortebio). Human CD93 recombinant protein (Sino Biological Inc, Catalog #12589-H08H) or cynomolgus CD93 protein (made in-house) were biotinylated using EZ-LINK NHS-PEG4 biotin (Thermo Fisher Scientific). Streptavidin biosensors (Fortebio) were used to load biotinylated CD93 protein (300 seconds at 5 μg/ml). The baseline was stabilized for 60 seconds in a 1× kinetics buffer (Fortebio) before serially diluted anti-CD93 antibodies were allowed to associate for 300 seconds with captured protein. The sensors were dissociated in a 1× kinetics buffer for 600 seconds.

[3] = biological target: T1, Human CD93 on cells (human CD93 …); test: flow cytometry, CHO-hCD93 cells, APC-A
[4] = biological target: T1, Human CD93 on cells (human CD93 …); test: flow cytometry titration, CHO-hCD93 cells; antibody stored 2 weeks at 40 C
Protocol: Human CD93 expressing CHO cells were detached by incubation with TrypLE reagents (Thermo Fisher), which preserves the integrity of CD93 on the cell surface. Then the cells were incubated with serial diluted anti-CD93 antibodies for 30 minutes at 4° C. After washing by FACS buffer, the cells were incubated with Alexa Fluor 647 conjugated anti-human IgG (Jackson ImmunoResearch) for 30 minutes in 4° C. After washing by FACS buffer twice, the samples were acquired in NovoCyte Flow Cytometer and analyzed by NovoExpress software.

[5] = biological target: T2, Human CD93 recombinant protein (Sino …); test: BLI (Octet QKe), biotinylated human CD93 on streptavidin biosensors; antibody stored 2 weeks at 40 C
Protocol: (§1) The binding affinity of anti-CD93 antibodies was determined with bio-layer interferometry using Octet QKe (Fortebio). […] Human CD93 recombinant protein (Sino Biological Inc, Catalog #12589-H08H) was biotinylated using EZ-LINK NHS-PEG4 biotin (Thermo Fisher Scientific). Streptavidin biosensors (Fortebio) were used to load biotinylated CD93 protein (300 seconds in 5 μg/ml). Baseline was stabilized for 60 seconds in 1× kinetics buffer (Fortebio) before anti-CD93 antibodies, at a serial dilution, were allowed to associate for 300 seconds with captured protein. Then the sensors were dissociated in 1× kinetics buffer for 600 seconds. […] (FIG. 42).

[6] = biological target: T2, Human CD93 recombinant protein (Sino …); test: BLI (Octet QKe), biotinylated human CD93 on streptavidin biosensors; antibody stored 4 weeks at 40 C
Protocol: as §1

Row | M3 gate, % of cells positive for MMRN2 after the antibody [1] [%] | Kd [2] [pM] | koff [2] [s⁻¹] | kon [2] [M⁻¹ s⁻¹] | M3 gate, % of cells [3] [%] | EC50 [4] [pM] | Kd [5] [pM] | koff [5] [s⁻¹] | kon [5] [M⁻¹ s⁻¹] | Kd [6] [pM] | koff [6] [s⁻¹] | kon [6] [M⁻¹ s⁻¹] | Binder
1 | 65.9 | 447 | 0.000429 | 960000 | 98.7 | – | – | – | – | – | – | – | 16E4 (hybridoma) (antibody, IgG2a, V domains shown, also called 16E4 mAb; 16E4 mIgG2a) VH: QVQLQQPGAELVKPGASVKLSCKASGYTFTSYWMHWVKQRPGQGLEWIGEIDPSASYTYYNQKFKGKATLTVDKSSSTAYMQLSSLTSEDSAVYYCARSVYYGNKYFDVWGAGTTVTVSS VL: not shown
2 | – | – | – | – | – | 274 | 20.4 | 5.08e-06 | 249000 | 112 | 3.24e-05 | 289000 | h16E4 (humanized 16E4, VH4+VL6) (antibody, V domains shown, Detected with anti-human IgG, so a human Fc) VH: QVQLVQSGAEVKKPGASVKVSCKASGYTFTSYWMHWVRQAPGQGLEWMGEIDPSASYTYYNQKFKGRVTMTRDKSSSTVYMELSSLTSEDSAVYYCARSVYYGNKYFDVWGAGTTVTVSS VL: DIQMTQSPSTLSASVGDRVTITCKASQSVDYAGDSYMNWYQQKPGKAPKLLIYAASNLESGVPSRFSGSGSGTEFTLTISSLQPDDFATYYCQQTNEDPRTFGGGTKLEIK
